Experiment [1] addresses T1, cynomolgus monkey CD16a on HEK293 cells expressing cyno monkey CD16a (constructed by Genscript) (cynomolgus monkey, UniProt Q8SPW2 17-254).
T1 chain: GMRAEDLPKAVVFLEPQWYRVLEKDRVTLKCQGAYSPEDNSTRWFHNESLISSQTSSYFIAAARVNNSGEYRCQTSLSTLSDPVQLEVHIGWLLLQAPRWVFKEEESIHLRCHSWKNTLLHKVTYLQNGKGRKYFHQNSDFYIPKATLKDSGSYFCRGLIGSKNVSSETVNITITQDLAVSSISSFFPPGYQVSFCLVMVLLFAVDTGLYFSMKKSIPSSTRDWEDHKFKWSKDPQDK
The experiment in a line: FACS. On the technique in general: A flow cytometer gives signals particle by particle.

The target of experiment [2] is human CD16a on HEK293 cells expressing human CD16a (constructed by Genscript) (human, UniProt P08637 17-254). The experiment in a line: FACS.
The target of experiment [3] is T2, human CD16b as FACS target of FIGS. 6B-10B (human, UniProt O75015 17-200).
T2 chain: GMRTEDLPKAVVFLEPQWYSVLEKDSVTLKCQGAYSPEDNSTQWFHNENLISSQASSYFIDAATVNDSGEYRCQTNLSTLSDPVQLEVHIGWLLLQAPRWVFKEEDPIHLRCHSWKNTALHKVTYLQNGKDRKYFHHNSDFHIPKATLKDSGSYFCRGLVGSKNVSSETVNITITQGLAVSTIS
The experiment in a line: FACS.

For experiment [4], the target named is recombinant human CD16a-His protein (Acro Biosystems; catalog #: CDA-H52S1) (human, UniProt P08637 17-208). The experiment in a line: ELISA (OD450; legend says FACS). On the technique in general: ELISA stands for enzyme-linked immunosorbent assay.
Sequence of recombinant human CD16a-His protein (Acro Biosystems; catalog #: CDA-H52S1) (P08637 17-208): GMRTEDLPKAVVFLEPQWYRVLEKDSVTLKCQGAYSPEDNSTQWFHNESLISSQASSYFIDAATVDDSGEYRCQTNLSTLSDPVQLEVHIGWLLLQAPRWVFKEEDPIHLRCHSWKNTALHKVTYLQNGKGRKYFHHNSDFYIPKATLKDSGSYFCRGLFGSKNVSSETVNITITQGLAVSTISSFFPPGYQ

Sequence of human CD16a on HEK293 cells expressing human CD16a (constructed by Genscript) (P08637 17-254): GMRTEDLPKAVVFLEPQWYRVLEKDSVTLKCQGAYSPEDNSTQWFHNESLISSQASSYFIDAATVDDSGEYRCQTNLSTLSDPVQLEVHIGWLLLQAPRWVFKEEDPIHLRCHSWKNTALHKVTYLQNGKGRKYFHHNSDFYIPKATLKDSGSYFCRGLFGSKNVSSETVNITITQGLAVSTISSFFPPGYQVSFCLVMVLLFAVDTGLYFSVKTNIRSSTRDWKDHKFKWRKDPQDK

B1: pTT5-AR8804-3.2 mIgG1Fc (Fc fusion)
heavy: QVQLVESGGGVVQPGGSLRLSCAASGSSVSRYAMAWYRQAPGKGREWVAVVRITGIPIYADFVKGRFTISRDNSKNTLYLQMNSLRAEDTAVYYCATGNFNTYTRRYSPSETWGKGTTVTVSSVPRDCGCKPCICTVPEVSSVFIFPPKPKDVLTITLTPKVTCVVVDISKDDPEVQFSWFVDDVEVHTAQTQPREEQFNSTFRSVSELPIMHQDWLNGKEFKCRVNSAAFPAPIEKTISKTKGRPKAPQVYTIPPPKEQMAKDKVSLTCMITDFFPEDITVEWQWNGQPAENYKNTQPIMDTDGSYFVYSKLNVQKSNWEAGNTFTCSVLHEGLHNHHTEKSLSHSPGK
For the molecule B1, the concentration giving a half-maximal response (EC50) (usually the concentration needed to bring the measured effect to its halfway point) in experiment [1] was 0.000928 µM; in experiment [2], 0.000444 µM; in experiment [3] it was approximately 195 µM.

B2: AR8866 sdAb fusion protein with mIgG1 Fc (Fc fusion)
chain: QVKLEESGGGLVQPGGSLRLSCVASGFTFSVWTMSWVRQAPGKGLEWVSDISHSGIYTTYADSVKGRFTISRDNAKNTLWLQLNALKPEDTAVYYCAQGNRRNSMLSGTLRGQGTQVTVSSVPRDCGCKPCICTVPEVSSVFIFPPKPKDVLTITLTPKVTCVVVDISKDDPEVQFSWFVDDVEVHTAQTQPREEQFNSTFRSVSELPIMHQDWLNGKEFKCRVNSAAFPAPIEKTISKTKGRPKAPQVYTIPPPKEQMAKDKVSLTCMITDFFPEDITVEWQWNGQPAENYKNTQPIMDTDGSYFVYSKLNVQKSNWEAGNTFTCSVLHEGLHNHHTEKSLSHSPGK
Turning to B2, the EC50 in experiment [4] worked out at 0.0174 µg/mL.

B3: AR8861 sdAb fusion protein with mIgG1 Fc (Fc fusion)
chain: AVQLVDSGGGLVQPGGSLRLSCVASGFTFSIWTMSWVRQAPGKGLEWVSDISHSGLYTTYADSVKGRFTISRDNAKNTLWLQLNALKPEDTAVYYCAQGNRRTSMLSGTLRGQGTQVTVSSVPRDCGCKPCICTVPEVSSVFIFPPKPKDVLTITLTPKVTCVVVDISKDDPEVQFSWFVDDVEVHTAQTQPREEQFNSTFRSVSELPIMHQDWLNGKEFKCRVNSAAFPAPIEKTISKTKGRPKAPQVYTIPPPKEQMAKDKVSLTCMITDFFPEDITVEWQWNGQPAENYKNTQPIMDTDGSYFVYSKLNVQKSNWEAGNTFTCSVLHEGLHNHHTEKSLSHSPGK
For B3, the EC50 in experiment [4] was 0.0227 µg/mL.

B4: AR8820 sdAb fusion protein with mIgG1 Fc (Fc fusion)
chain: QVKLEESGGGLVQAGGSLRLSCAASGSSISRYAMAWYRQGPGKERELVAVVRITGSPIYADFVGGRFTISRDNAKSTVLLQMNSLKPEDTAIYYCNTGNFNTYTRRYSPSETWGQGTQVTVSSVPRDCGCKPCICTVPEVSSVFIFPPKPKDVLTITLTPKVTCVVVDISKDDPEVQFSWFVDDVEVHTAQTQPREEQFNSTFRSVSELPIMHQDWLNGKEFKCRVNSAAFPAPIEKTISKTKGRPKAPQVYTIPPPKEQMAKDKVSLTCMITDFFPEDITVEWQWNGQPAENYKNTQPIMDTDGSYFVYSKLNVQKSNWEAGNTFTCSVLHEGLHNHHTEKSLSHSPGK
In the case of B4, in experiment [4], the EC50 was 0.0151 µg/mL.

B5: AR8804 sdAb fusion protein with mIgG1 Fc (Fc fusion)
chain: AVQLVDSGGGLVQAGGSLRLSCAASGSSVSRYAMAWYRQAPGKERELVAVVRITGIPIYADFVKGRFTISRDNAKNTVLLQMNSLEPEDTAIYYCNTGNFNTYTRRYSPSETWGQGTQVTVSSVPRDCGCKPCICTVPEVSSVFIFPPKPKDVLTITLTPKVTCVVVDISKDDPEVQFSWFVDDVEVHTAQTQPREEQFNSTFRSVSELPIMHQDWLNGKEFKCRVNSAAFPAPIEKTISKTKGRPKAPQVYTIPPPKEQMAKDKVSLTCMITDFFPEDITVEWQWNGQPAENYKNTQPIMDTDGSYFVYSKLNVQKSNWEAGNTFTCSVLHEGLHNHHTEKSLSHSPGK
Consider B5, for which, in experiment [4], the concentration giving a half-maximal response (EC50) amounted to 0.0158 µg/mL.

B6: AR8887 sdAb fusion protein with mIgG1 Fc (Fc fusion)
chain: QVQLVESGGGLVQAGGSLRLSCAVSGFLYYSIGWFRQAPGKEREWVSCISRSGAGTSYANSVKGRSTISRDNDKNTVYLQMNSLKSEDTAVYYCARRATSSCTATMTRGQYDYWGQGTQVTVSSVPRDCGCKPCICTVPEVSSVFIFPPKPKDVLTITLTPKVTCVVVDISKDDPEVQFSWFVDDVEVHTAQTQPREEQFNSTFRSVSELPIMHQDWLNGKEFKCRVNSAAFPAPIEKTISKTKGRPKAPQVYTIPPPKEQMAKDKVSLTCMITDFFPEDITVEWQWNGQPAENYKNTQPIMDTDGSYFVYSKLNVQKSNWEAGNTFTCSVLHEGLHNHHTEKSLSHSPGK
Turning to B6, in experiment [4], the concentration giving a half-maximal response (EC50) was 0.0217 µg/mL.

B7: AR8875 sdAb fusion protein with mIgG1 Fc (Fc fusion)
chain: QVQLVESGGGLVQPGGSLRLSCAASGFTFSNYAMTWVRQAPGKGLEWVSSIDRGGSITSYADSVKGRFAISRDNAKNTMYLQMNNLRPEDTARYVCARGDSTYSRLTAAYRGQGTQVTVSSVPRDCGCKPCICTVPEVSSVFIFPPKPKDVLTITLTPKVTCVVVDISKDDPEVQFSWFVDDVEVHTAQTQPREEQFNSTFRSVSELPIMHQDWLNGKEFKCRVNSAAFPAPIEKTISKTKGRPKAPQVYTIPPPKEQMAKDKVSLTCMITDFFPEDITVEWQWNGQPAENYKNTQPIMDTDGSYFVYSKLNVQKSNWEAGNTFTCSVLHEGLHNHHTEKSLSHSPGK
In the case of B7, the EC50 in experiment [4] turned out to be 0.018 µg/mL.

B8: AR8776 sdAb fusion protein with mIgG1 Fc (Fc fusion)
chain: AVQLVESGGGLVQPGGSLRLSCAASGFTFSNYAMSWVRQAPGKGLEWVSSINRGGSITNYADSVKGRFAISRDNAKNTIYLQMNNLRPEDTAQYSCARGDSTYSRLSAAYRGQGTQVTVSSVPRDCGCKPCICTVPEVSSVFIFPPKPKDVLTITLTPKVTCVVVDISKDDPEVQFSWFVDDVEVHTAQTQPREEQFNSTFRSVSELPIMHQDWLNGKEFKCRVNSAAFPAPIEKTISKTKGRPKAPQVYTIPPPKEQMAKDKVSLTCMITDFFPEDITVEWQWNGQPAENYKNTQPIMDTDGSYFVYSKLNVQKSNWEAGNTFTCSVLHEGLHNHHTEKSLSHSPGK
Consider B8, for which the EC50 in experiment [4] is 0.0155 µg/mL.

B9: pTT5-AR8820-2.3mIgG1Fc (Fc fusion)
VHH-Fc: EVQLVESGGGLIQPGGSLRLSCAASGSSISRYAMAWYRQAPGKGRELVSVVRITGSPIYADFVGGRFTISRDNSKNTLYLQMNSLRAEDTAVYYCNRGNFNTYTRRYSPSETWGQGTTVTVSSVPRDCGCKPCICTVPEVSSVFIFPPKPKDVLTITLTPKVTCVVVDISKDDPEVQFSWFVDDVEVHTAQTQPREEQFNSTFRSVSELPIMHQDWLNGKEFKCRVNSAAFPAPIEKTISKTKGRPKAPQVYTIPPPKEQMAKDKVSLTCMITDFFPEDITVEWQWNGQPAENYKNTQPIMDTDGSYFVYSKLNVQKSNWEAGNTFTCSVLHEGLHNHHTEKSLSHSPGK
In the case of B9, the EC50 is 0.000745 µM in experiment [1], 0.000332 µM in experiment [2] and approximately 167 µM in experiment [3].

B10: pTT5-AR8820-2.1mIgG1Fc (Fc fusion)
VHH-Fc: EVQLVESGGGLIQPGGSLRLSCAASGSSISRYAMAWYRQAPGKGRELVSVVRITGSPIYADFVGGRFTISRDNSKNTLYLQMNSLRAEDTAVYYCATGNFNTYTRRYSPSETWGQGTTVTVSSVPRDCGCKPCICTVPEVSSVFIFPPKPKDVLTITLTPKVTCVVVDISKDDPEVQFSWFVDDVEVHTAQTQPREEQFNSTFRSVSELPIMHQDWLNGKEFKCRVNSAAFPAPIEKTISKTKGRPKAPQVYTIPPPKEQMAKDKVSLTCMITDFFPEDITVEWQWNGQPAENYKNTQPIMDTDGSYFVYSKLNVQKSNWEAGNTFTCSVLHEGLHNHHTEKSLSHSPGK
Take B10: the EC50 in experiment [1] is 0.000787 µM; in experiment [2], 0.000494 µM; in experiment [3] it was approximately 7840 µM.

B11: pTT5-AR8820-1.1mIgG1Fc (Fc fusion)
heavy: QVQLVESGGGVVQPGGSLRLSCAASGSSISRYAMAWYRQAPGKGRELVAVVRITGSPIYADFVGGRFTISRDNSKNTLYLQMNSLRAEDTAVYYCATGNFNTYTRRYSPSETWGKGTTVTVSSVPRDCGCKPCICTVPEVSSVFIFPPKPKDVLTITLTPKVTCVVVDISKDDPEVQFSWFVDDVEVHTAQTQPREEQFNSTFRSVSELPIMHQDWLNGKEFKCRVNSAAFPAPIEKTISKTKGRPKAPQVYTIPPPKEQMAKDKVSLTCMITDFFPEDITVEWQWNGQPAENYKNTQPIMDTDGSYFVYSKLNVQKSNWEAGNTFTCSVLHEGLHNHHTEKSLSHSPGK
Turning to B11, the figures for the EC50 in experiment [1], in experiment [2] and in experiment [3] were 0.00092 µM, 0.00038 µM and approximately 65.6 µM, respectively.

B12: pTT5-AR8804-3.3mIgG1Fc (Fc fusion)
heavy: QVQLVESGGGVVQPGGSLRLSCAASGSSVSRYAMAWYRQAPGKGRELVAVVRITGIPIYADFVKGRFTISRDNSKNTLYLQMNSLRAEDTAVYYCNTGNFNTYTRRYSPSETWGKGTTVTVSSVPRDCGCKPCICTVPEVSSVFIFPPKPKDVLTITLTPKVTCVVVDISKDDPEVQFSWFVDDVEVHTAQTQPREEQFNSTFRSVSELPIMHQDWLNGKEFKCRVNSAAFPAPIEKTISKTKGRPKAPQVYTIPPPKEQMAKDKVSLTCMITDFFPEDITVEWQWNGQPAENYKNTQPIMDTDGSYFVYSKLNVQKSNWEAGNTFTCSVLHEGLHNHHTEKSLSHSPGK
B12: the concentration giving a half-maximal response (EC50) amounted to 0.000838 µM in experiment [1] and 0.000412 µM in experiment [2].

B13: pTT5-AR8820-1.3mIgG1Fc (Fc fusion)
heavy: QVQLVESGGGVVQPGGSLRLSCAASGSSISRYAMAWYRQAPGKGRELVAVVRITGSPIYADFVGGRFTISRDNSKNTLYLQMNSLRAEDTAVYYCNTGNFNTYTRRYSPSETWGKGTTVTVSSVPRDCGCKPCICTVPEVSSVFIFPPKPKDVLTITLTPKVTCVVVDISKDDPEVQFSWFVDDVEVHTAQTQPREEQFNSTFRSVSELPIMHQDWLNGKEFKCRVNSAAFPAPIEKTISKTKGRPKAPQVYTIPPPKEQMAKDKVSLTCMITDFFPEDITVEWQWNGQPAENYKNTQPIMDTDGSYFVYSKLNVQKSNWEAGNTFTCSVLHEGLHNHHTEKSLSHSPGK
As for B13, the EC50 in experiment [1] was 0.000772 µM; in experiment [2], 0.000384 µM.

(Values after US20240352128A1 (published 2024).)
